The source of these data is article PMC3404464 (ACS medicinal chemistry letters, 2012).

The Km is the substrate concentration at which the rate is half of its maximum. By kcat is commonly meant the maximal rate divided by the concentration of active sites.

Series [1] has as its target lytic transglycosylase MltB of Escherichia coli (Escherichia coli, UniProt P41052). Nature of the series: MltB binding by intrinsic tryptophan/tyrosine fluorescence. The conditions noted are these: excitation 280 nm.
Series [2] relates to CO[C@@H]1O[C@H](CO)[C@@H](O[C@@H]2O[C@H](CO)[C@@H](O)[C@H](O)[C@H]2NC(C)=O)[C@H](O[C@H](C)C(=O)N[C@@H](C)C(=O)N[C@H](CCC(=O)N[C@@H](CCC[C@@H](N)C(=O)O)C(=O)N[C@H](C)C(=O)N[C@H](C)C(=O)O)C(=O)O)[C@H]1NC(C)=O. Nature of the series: Turnover of synthetic substrates by NagZ. Conditions: other: substrate hydrolysis by NagZ. Format: biochemical, Pseudomonas aeruginosa.
Series [3] concerns CC(=O)N[C@H]1[C@H](O[C@H]2[C@H](O[C@H](C)C(=O)N[C@@H](C)C(=O)N[C@H](CCC(=O)N[C@@H](CCC[C@@H](N)C(=O)O)C(=O)N[C@H](C)C(=O)N[C@H](C)C(=O)O)C(=O)O)[C@@H](NC(C)=O)[C@@H]3OC[C@H]2O3)O[C@H](CO)[C@@H](O)[C@@H]1O. In words: Turnover of synthetic substrates by NagZ. The conditions noted are these: other: substrate hydrolysis by NagZ. Format: biochemical, Pseudomonas aeruginosa.

lytic transglycosylase MltB of Escherichia coli, sequence (P41052 19-361): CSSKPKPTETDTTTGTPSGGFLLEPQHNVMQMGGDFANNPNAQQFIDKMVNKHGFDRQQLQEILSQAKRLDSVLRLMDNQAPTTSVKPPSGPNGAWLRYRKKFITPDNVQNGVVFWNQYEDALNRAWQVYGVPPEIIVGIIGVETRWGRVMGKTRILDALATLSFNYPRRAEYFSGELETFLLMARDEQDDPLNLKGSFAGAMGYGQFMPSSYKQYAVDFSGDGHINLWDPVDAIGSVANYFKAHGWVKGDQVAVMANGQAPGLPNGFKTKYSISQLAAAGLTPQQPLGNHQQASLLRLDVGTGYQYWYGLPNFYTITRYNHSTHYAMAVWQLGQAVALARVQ

On to `CC(=O)N[C@H]1CN[C@H](CO)[C@@H](O)[C@@H]1O.Cl` [compound 3, 2-acetamido-1,2-dideoxynojirimycin], for which the “kns (non-saturable, presumably non-specific binding mode)” value in series [1] is 0.128 ± 0.004 µM⁻¹.
For `CC(=O)N[C@H]1CN[C@H](CO)[C@@H](O)[C@@H]1O[C@H](C)C(=O)O.Cl` [compound 4], the “kns (non-saturable, presumably non-specific binding mode)” value in series [1] is 0.060 ± 0.006 µM⁻¹.
As for “NagZ of P. aeruginosa (Pseudomonas aeruginosa PAO1)”, in series [2], the Km was 165 ± 36 µM, the kcat came to 0.77 ± 0.04 s⁻¹ and the kcat/Km result is “(0.5 ± 0.1) × 10^4 M^−1s^−1”. In series [3], the Km was 104 ± 2 µM, the kcat came to 6.6 ± 0.2 s⁻¹ and the kcat/Km was 6.3 ± 0.2 × 10^4 M^−1s^−1.
